Results reported in paper PMC7531118, “Investigating host-microbiome interactions by droplet based microfluidics” (Microbiome, 2020).

Legend:
[1] = tested on: CC(=O)N[C@H]1[C@H](Oc2ccc([N+](=O)[O-])cc2)O[C@H](CO)[C@@H](O)[C@@H]1O; experiment: purified protein; settings: citrate buffer pH 5.5, 0.25 to 1.5 mM substrate, 30.0 °C
[2] = tested on: CC(=O)N[C@H]1[C@H](Oc2ccc([N+](=O)[O-])cc2)O[C@H](CO)[C@H](O)[C@@H]1O; experiment: purified protein; settings: citrate buffer pH 5.5, 0.25 to 1.5 mM substrate, 30.0 °C

Work on “Uhgb_GH123 (Phocaeicola plebeius DSM 17135)” yielded a Km [1] of 3.87 ± 0.27 mM, a kcat [1] of 0.33 ± 0.02 s⁻¹ and a kcat/Km [1] of 85 M⁻¹ s⁻¹. The Km [2] was 1.17 ± 0.10 mM, the kcat [2] was 21.2 ± 1.18 s⁻¹ and the kcat/Km [2] was 18200 M⁻¹ s⁻¹.
